Laboratory results: the supplement of paper PMC12667976
± gives the standard error.

B1: library; numbered along this chain (parent)
chain: MATDAALRRLLRLHRTEIAVAVDSAFPLLHALADHDVVPEDKFQETLHLKEKEGCPQAFHALLSWLLTQDSTAILDFWRVLFKDYNLERYGRLQPILDSFPKDVDLSQPRKGRKPPAVPKALVPPPRLPTKRKASEEARAAAPAALTPRGTASPGSQLKAKPPKKPESSAEQQRLPLGNGIQTMSASVQRAVAMSSGDVPGARGAVEGILIQQVFESGGSKKCIQVGGEFYTPSKFEDSGSGKNKARSSSGPKPLVRAKGAQGAAPGGGEARLGQQGSVPAPLALPSDPQLHQKNEDECAVCRDGGELICCDGCPRAFHLACLSPPLREIPSGTWRCSSCLQATVQEVQPRAEEPRPQEPPVETPLPPGLRSAGEEVRGPPGEPLAGMDTTLVYKHLPAPPSAAPLPGLDSSALHPLLCVGPEGQQNLAPGARCGVCGDGTDVLRCTHCAAAFHWRCHFPAGTSRPGTGLRCRSCSGDVTPAPVEGVLAPSPARLAPGPAKDDTASHEPALHRDDLESLLSEHTFDGILQWAIQSMARPAAPFPS

Variants of: B1
Assay: AIRE transcriptional activation functional score (insulin promoter-GFP; nonsense median 0, synonymous median 1) (normalised score); higher = higher AIRE activity (more reporter activation)
Settings: with insulin promoter-GFP reporter in HEK293
Protocol: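 Deep mutational scan of full-length human AIRE (codon-optimized cDNA, DT-POPCode NNN libraries over three regions) integrated at a Bxb1 landing pad in HEK293 cells carrying an insulin core promoter-GFP reporter at a Flp-In site. Cells were sorted for the top 10% GFP about 14 days after transfection. Variant frequency log-ratios (select vs non-select, TileSeq) were rescaled so that the nonsense median is 0 and the synonymous median is 1, then averaged over biological replicates.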

| Variant | AIRE transcriptional activation functional score |
| --- | --- |
| S402N | 1.13 ± 0.11 |
| A540W | 0.41 ± 0.054 |
| S99C | 1.07 ± 0.23 |
| R336A | 1.02 ± 0.3 |
| R336V | 0.812 ± 0.47 |
| P539D | 0.00758 ± 0.27 |
| G438V | 1.1 ± 0.27 |
| T68W | -0.374 ± 0.096 |
| S195I | 0.0828 ± 0.16 |
| S195H | 0.996 ± 0.13 |
| A432V | 0.872 ± 0.29 |
| G435F | 0.364 ± 0.23 |
| L273Q | 1.72 ± 0.43 |
| L273M | 1.19 ± 0.068 |
| L414S | 0.625 ± 0.42 |
| L414P | 0.785 ± 0.23 |
| L414D | 1.03 ± 0.042 |
| H507T | 0.361 ± 0.44 |
| G313F | 1.13 ± 0.36 |
| Q262P | 1.16 ± 0.29 |
| Q262M | 0.443 ± 0.11 |
| Q262K | 0.987 ± 0.24 |
| S521T | 1.08 ± 0.24 |
| S521W | 0.299 ± 0.049 |

| Variant | AIRE transcriptional activation functional score |
| --- | --- |
| C310K | 0.681 ± 0.21 |
| T463C | 1.42 ± 0.16 |
| D34S | -0.594 ± 0.38 |
| Y394L | 1.07 ± 0.27 |
| R132E | 0.0732 ± 0.14 |
| R132M | 0.275 ± 0.13 |
| E423A | 1.2 ± 0.1 |
| T364F | 0.115 ± 0.34 |
| L529Y | 0.598 ± 0.66 |
| R456V | -0.245 ± 0.13 |
| A493C | 1.13 ± 0.075 |
| A493L | 1.09 ± 0.35 |
| K52F | 0.16 ± 0.23 |
| H35Q | -0.305 ± 0.25 |
| A500Q | 1.34 ± 0.12 |
| W335Q | 1.19 ± 0.092 |
| S220G | 0.764 ± 0.19 |
| Q189T | 0.669 ± 0.27 |
| G486H | 1.27 ± 0.27 |
| V20F | 0.146 ± 0.077 |
| A19D | 0.412 ± 0.59 |
| T3K | 1.31 ± 0.12 |
| T3M | 1.74 ± 0.052 |
| V123G | 1.3 ± 0.27 |

| Variant | AIRE transcriptional activation functional score |
| --- | --- |
| C419Q | 1.3 ± 0.049 |
| S248T | 0.975 ± 0.46 |
| S248W | 1.01 ± 0.026 |
| S248C | 1.03 ± 0.18 |
| R190F | -0.277 ± 0.2 |
| V22C | -0.0794 ± 0.063 |
| P381N | 1.07 ± 0.078 |
| P381K | 1.04 ± 0.072 |
| A284P | 0.905 ± 0.28 |
| R473A | 0.794 ± 0.38 |
| H30G | 0.000219 ± 0.62 |
| H30I | -0.51 ± 0.27 |
| T480N | 0.784 ± 0.37 |
| G477Q | 0.0223 ± 0.072 |
| D478H | 0.829 ± 0.047 |
| A532C | -0.268 ± 0.071 |
| S474T | 0.317 ± 0.15 |
| P460H | 1.05 ± 0.09 |
| P460F | 0.995 ± 0.098 |
| L47C | -0.421 ± 0.3 |
| S24L | -0.159 ± 0.4 |
| P116Y | 1.17 ± 0.12 |
| P116G | 0.577 ± 0.51 |
| E347F | 1.28 ± 0.059 |

| Variant | AIRE transcriptional activation functional score |
| --- | --- |
| L93A | 0.124 ± 0.2 |
| L93W | 0.0522 ± 0.035 |
| L341Q | 1.08 ± 0.17 |
| G469P | 0.911 ± 0.2 |
| G374P | 1.1 ± 0.11 |
| G374S | 1.24 ± 0.3 |
| Y90W | -0.215 ± 0.059 |
| Y90R | 0.13 ± 0.59 |
| A134T | -0.16 ± 0.69 |
| A261I | 0.612 ± 0.18 |
| H319S | 1.31 ± 0.088 |
| K161C | 1.56 ± 0.32 |
| K161R | 1.55 ± 0.51 |
| G227L | 0.445 ± 0.48 |
| F82W | -0.557 ± 0.12 |
| F82C | -0.279 ± 0.34 |
| F82A | -0.904 ± 0.4 |
| W455S | 0.675 ± 0.2 |
| P162I | 1.97 ± 0.41 |
| P162W | 1.26 ± 0.46 |
| P509G | 1.11 ± 0.048 |
| K165P | -0.251 ± 0.2 |
| K165H | 1.16 ± 0.37 |
| K165N | 0.909 ± 0.42 |

| Variant | AIRE transcriptional activation functional score |
| --- | --- |
| V199A | 0.731 ± 0.43 |
| V199K | 0.754 ± 0.12 |
| G260A | 0.8 ± 0.44 |
| E329S | 1.09 ± 0.2 |
| G382A | 0.906 ± 0.34 |
| S250G | 0.835 ± 0.23 |
| S250P | -0.109 ± 0.13 |
| S250I | 1.11 ± 0.26 |
| V345T | 1.24 ± 0.34 |
| L444Y | 0.814 ± 0.26 |
| L519Y | 1.11 ± 0.83 |
| C322N | 0.919 ± 0.21 |
| P266K | 1.19 ± 0.22 |
| R445E | 0.42 ± 0.073 |
| D84L | -0.0937 ± 0.33 |
| D84C | -0.0537 ± 0.25 |
| D84R | 0.794 ± 0.32 |
| L97Y | 2.69 ± 0.14 |
| C457R | -0.0861 ± 0.31 |
| C457I | -0.23 ± 0.29 |
| R79F | 0.705 ± 0.11 |
| L418H | 0.443 ± 0.16 |
| V420Y | 0.639 ± 0.099 |
| P143L | 1.11 ± 0.19 |

| Variant | AIRE transcriptional activation functional score |
| --- | --- |
| P143H | 1.09 ± 0.38 |
| G204V | 0.123 ± 0.41 |
| K222L | 0.0335 ± 0.19 |
| F543N | 0.535 ± 0.17 |
| S518C | 0.672 ± 0.18 |
| S518T | 1.51 ± 0.17 |
| K111F | 0.696 ± 0.48 |
| G527C | 0.656 ± 0.045 |
| T504V | 0.558 ± 0.048 |
| E171N | 1.05 ± 0.48 |
| G431K | 0.71 ± 0.18 |
| C472F | 0.226 ± 0.17 |
| K102E | 1.25 ± 0.48 |
| V393C | 1.11 ± 0.028 |
| Q57T | 0.369 ± 0.64 |
| V38P | -0.205 ± 0.17 |
| M388D | 0.8 ± 0.26 |
| G498D | 0.318 ± 0.12 |
| V436C | 1.33 ± 0.37 |
| E363I | 1.02 ± 0.095 |
| E51T | -0.0714 ± 0.14 |
| L392E | 0.303 ± 0.068 |
| V484F | 0.8 ± 0.35 |
| V37Y | 0.262 ± 0.11 |

| Variant | AIRE transcriptional activation functional score |
| --- | --- |
| V362M | -0.739 ± 0.14 |
| V362A | 1.13 ± 0.15 |
| F525E | -1.43 ± 0.36 |
| S107G | 0.704 ± 0.72 |
| V118A | 1.02 ± 0.72 |
| P355I | 1.01 ± 0.11 |
| P355E | 0.969 ± 0.29 |
| F77I | 0.0486 ± 0.17 |
| A373P | 1.13 ± 0.15 |
| T334H | 0.766 ± 0.4 |
| L366P | 1.13 ± 0.35 |
| L366C | 0.406 ± 0.69 |
| Q346L | 1.2 ± 0.14 |
| D4T | -0.494 ± 0.11 |
| R257P | 0.935 ± 0.26 |
| P56Y | -0.155 ± 0.82 |
| G218Y | 0.677 ± 0.28 |
| L28R | 0.297 ± 0.54 |
| S476I | 1.23 ± 0.15 |
| S476A | 0.905 ± 0.28 |
| T391C | 0.542 ± 0.084 |
| I74T | -0.246 ± 0.34 |
| S464L | 1.06 ± 0.28 |
